In assay [1] the target is T1, human OX40-CD40 fusion protein on HEK-Blue reporter cells (human).
T1 chain: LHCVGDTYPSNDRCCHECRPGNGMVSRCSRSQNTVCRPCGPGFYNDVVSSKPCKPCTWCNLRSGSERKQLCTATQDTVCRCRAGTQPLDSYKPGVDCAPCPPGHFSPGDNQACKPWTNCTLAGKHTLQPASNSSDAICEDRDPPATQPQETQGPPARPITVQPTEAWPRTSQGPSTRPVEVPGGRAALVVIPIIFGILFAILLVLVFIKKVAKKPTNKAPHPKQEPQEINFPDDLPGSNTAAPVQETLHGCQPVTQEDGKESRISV
As to the kind of experiment: cell-based or functional assay.

The target in assay [2] is T2, recombinant human OX40-his (Sino Biological, Cat#:10481-H03H) (human, UniProt P43489 29-214).
T2 construct: bought protein; also called hOX40-his; not shown: His tag
T2 sequence: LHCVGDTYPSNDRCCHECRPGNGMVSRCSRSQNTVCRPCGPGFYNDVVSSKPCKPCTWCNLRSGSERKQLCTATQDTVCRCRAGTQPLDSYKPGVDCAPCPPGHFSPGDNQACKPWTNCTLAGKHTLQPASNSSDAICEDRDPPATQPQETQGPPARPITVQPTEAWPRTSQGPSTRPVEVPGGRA
As to the kind of experiment: ELISA, coated hOX40-his. On the procedure:
(§1) ELISA plates were coated with 500 ng/ml human OX40-his (used in Example 2) at 4° C. overnight. The wells were blocked with 200 µl of blocking buffer (PBS containing 1% BSA, 1% goat serum, 0.05% Tween 20) for 2 hours at room temperature, and then 100 µl of serially diluted anti-OX40 antibodies (starting from 40 µg/ml) were added to each well and incubated for 1 hour at RT. Plates were washed for 3 times with PBST (PBS+0.05% Tween 20), added with Goat-anti-mouse IgG-HRP (Simga, US, Cat#: A9309-1 ml) diluted 5000×, and incubated for 1 hour at RT. Plates were developed with freshly prepared Ultra-TMB (BD, US, Cat#: 555214) for 5 minutes at RT. Absorbance was read on a SpectraMax® i3× (Molecular Devies, US) at 450 nm.
A general note: In an ELISA, binding on a coated surface is turned into a signal by an enzyme label.

For assay [3], the target named is T3, mouse OX40 expressed on HEK293A cells (mouse, UniProt P47741 20-272).
T3 construct: also called HEK293A/muOX40; HEK293A/mouseOX40 cells
T3 sequence: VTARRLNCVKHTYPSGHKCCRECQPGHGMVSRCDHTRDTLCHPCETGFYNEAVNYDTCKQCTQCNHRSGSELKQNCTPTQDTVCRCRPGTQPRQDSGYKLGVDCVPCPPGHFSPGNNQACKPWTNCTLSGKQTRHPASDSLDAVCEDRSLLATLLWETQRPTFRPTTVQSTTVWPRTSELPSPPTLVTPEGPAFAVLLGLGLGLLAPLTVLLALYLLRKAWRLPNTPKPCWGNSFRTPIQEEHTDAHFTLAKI
As to the kind of experiment: FACS on HEK293A/muOX40 cells. On the procedure: (§2) Briefly, 10^5 HEK293A cells were seeded into each well of the 96-well plates and serially diluted anti-OX40 antibodies were added to the plates. After incubated at 4° C. for 1 hour, plates were washed 3 times with PBST. Then, an APC coupled Goat Anti-Mouse IgG (BioLegen, US, Cat#: 405308) diluted 500× was added to the plates. After incubation at 4° C. for 1 hour, the plates were washed with PBS for 3 times and then cell fluorescence was monitored using a FACS machine (BD).

In assay [4] the target is T4, recombinant rhesus OX40-his (Sino Biological, Cat#:90846-C08H) (rhesus monkey, UniProt P43489 29-214 (human entry)).
T4 construct: bought protein; also called monkey OX40-his; rhOX40-his; not shown: His tag
T4 chain: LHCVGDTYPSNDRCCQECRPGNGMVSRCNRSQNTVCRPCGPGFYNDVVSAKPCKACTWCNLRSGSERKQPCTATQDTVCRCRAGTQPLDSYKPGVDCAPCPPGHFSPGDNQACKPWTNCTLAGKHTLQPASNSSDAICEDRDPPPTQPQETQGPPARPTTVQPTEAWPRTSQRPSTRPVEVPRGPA
As to the kind of experiment: ELISA, coated rhOX40-his. On the procedure:
as §1
Species-cross-reactivity of the 33 OX40 mAbs to monkey or mouse OX40 was further assessed by direct ELISA. Briefly, 500 ng/ml monkey OX40-his or mouse OX40-his (used in Example 2) was coated on 96-well ELISA plates followed by incubation with 100 µl of serially diluted anti-OX40 antibodies (starting from 40 µg/ml). Goat anti-mouse IgG (Sigma, US, Cat#:A9309-1 ml) conjugated with HRP was used then.

For assay [5], the target named is T5, rhesus OX40 expressed on HEK293A cells (rhesus, UniProt P43489 29-277 (human entry)).
T5 construct: also called HEK293A/rhOX40; HEK293A/rhesusOX40 cells
T5 chain: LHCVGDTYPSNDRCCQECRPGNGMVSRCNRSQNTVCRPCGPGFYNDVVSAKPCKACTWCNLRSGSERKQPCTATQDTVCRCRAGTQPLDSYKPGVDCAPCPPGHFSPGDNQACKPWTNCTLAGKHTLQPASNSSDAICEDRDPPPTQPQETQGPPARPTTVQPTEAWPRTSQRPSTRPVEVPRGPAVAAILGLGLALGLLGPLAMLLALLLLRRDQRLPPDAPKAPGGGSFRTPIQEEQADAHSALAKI
As to the kind of experiment: FACS on HEK293A cells. On the procedure: as §2

In assay [6] the target is T6, human OX40 expressed on HEK293A cells (human, UniProt P43489 29-277).
T6 construct: also called HEK293A/huOX40; HEK293A/human OX40 cells
T6 sequence: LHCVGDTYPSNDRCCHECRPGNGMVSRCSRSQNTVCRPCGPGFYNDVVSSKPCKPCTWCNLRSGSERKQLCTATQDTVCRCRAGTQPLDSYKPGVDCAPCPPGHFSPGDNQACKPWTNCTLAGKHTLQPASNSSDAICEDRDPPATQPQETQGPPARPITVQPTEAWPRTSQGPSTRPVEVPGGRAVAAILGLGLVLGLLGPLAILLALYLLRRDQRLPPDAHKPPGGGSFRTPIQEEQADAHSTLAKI
The assay can be described thus: FACS on HEK293A cells. On the procedure:
as §2

The target in assay [7] is T7, murine OX40-His (Crown, Cat#: E3350-B1707) (mouse, UniProt P47741 20-211).
T7 construct: bought protein; also called mouse OX40-his; muOX40-his; not shown: His tag
T7 sequence: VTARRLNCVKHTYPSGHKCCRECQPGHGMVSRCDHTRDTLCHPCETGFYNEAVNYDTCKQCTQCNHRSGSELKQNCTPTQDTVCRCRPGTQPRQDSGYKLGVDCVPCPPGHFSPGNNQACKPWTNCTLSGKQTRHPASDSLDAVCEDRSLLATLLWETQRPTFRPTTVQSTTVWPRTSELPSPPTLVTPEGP
The assay can be described thus: ELISA, coated muOX40-his.

Assay [8] has as its target T2, recombinant human OX40-his (Sino …). The assay can be described thus: ELISA on coated human OX40-His, OD450.
Assay [9] has the same target. The assay can be described thus: SPR Biacore 8K, OX40-His on chip, antibody injected. On the procedure: SPR assays were used to determine the binding affinity of the chimetic or humanized anti-OX40 antibodies to human OX40 with the BIAcore™ 8K instrument (GE Life Sciences). Briefly, 100-200 response units (RU) of human OX40-His protein (Sino Biological, CN, Cat#:10481-H03H, Lot no.: MA08MA3003) were coupled to CM5 biosensor chips (Cat#: BR-1005-30, GE Life Sciences), followed by blocking of un-reacted groups with 1M ethanolamine. Serially diluted antibodies at concentrations ranging from 0.3 µM to 10 µM were injected into the SPR running buffer (HBS-EP buffer, pH7.4, GE Life Sciences; US; Cat#:BR-1006-69) at 30 µL/minute. The binding capacitity was calculated with the RUs of blank controls subtracted. The association rate (k_a) and dissociation rate (k_d) were calculated using the one-to-one Langmuir binding model (BIA Evaluation Software, GE Life Sciences). The equilibrium dissociation constant K_D was calculated as the k_d/k_a ratio.
A general note: Surface plasmon resonance follows binding to a sensor surface in real time, without labels.

Assay [10] deals with T4, recombinant rhesus OX40-his (Sino …). The assay can be described thus: ELISA on coated rhesus OX40-His, OD450.
For assay [11], the target named is T6, human OX40 expressed on HEK293A cells. As to the kind of experiment: FACS on HEK293A/huOX40 cells.
Assay [12] has as its target T5, rhesus OX40 expressed on HEK293A cells. The assay can be described thus: FACS on HEK293A/rhOX40 cells.
The target in assay [13] is T7, murine OX40-His (Crown, Cat#: …). As to the kind of experiment: ELISA on coated mouse OX40-His, OD450.
Assay [14] has the same target. As to the kind of experiment: ELISA on coated mouse OX40-His, OD450. This is another data set of the same source.

The results in this text go back to patent US10442866 (BEIJING MABWORKS BIOTECH, dated 2019).

B1: 68C8 (murine monoclonal antibody) (antibody, V domains shown)
VH: QVQLQQSGAELVKPGASVKMSCKASGDTFTSYWITWVKQRPGQGLEWIGDIHPGSGSTNNNEKFKNKATLTVDTSSSTAYMQLSSLTSEDSAVYYCAKLRPYYFVYWGQGTTLTVSS
VL: DIQMTQTTSSLSASLGDRVTISCRASQDISNYLNWYQQKPDGTVKLLIYYTSRLLSGVPSRFSGSGSGTDYSLTISNLEQEDIATYFCQQGNTLPLTFGAGTRLELK
Take B1: the “EC50, agonistic activity in HEK-Blue assay” value (“EC50, agonistic activity” below) in assay [1] turned out to be 0.0866 µg/mL. Moreover, the EC50 in assay [2] is 0.0483 µg/mL; in assay [4] it was 0.06 µg/mL; in [5] it was 0.095 µg/mL; in assay [6] it was 0.113 µg/mL. Further, the binding result is on record as “no binding” in assay [3] and “no binding (tested: serial dilution from 40 µg/ml)” in [7].

B2: chimeric antibody 71H8 (antibody, human IgG1, kappa, V domains shown)
VH: QVQLQQSGAELVKPGASVKMSCKASGYTFTSYWITWVKQRPGQGLEWIGDIYPGSGSTNQNEKFKSKATLTVDTSSSTAYMQLSSLTSEDSAVYYCAKLRPYYFVYWGQGTTLTVSS
VL: DIQMTQTPSSLSASLGDRVTISCRASQDISNYLNWYQQKPDGTVKLLIYYTSRLLSGVPSRFSGSGSGTDYSLTISNLEQEDIATYFCQQGNTLPLTFGAGTKLELKR
notes: mouse variable regions with human IgG1/kappa constant regions
In the case of B2, the “EC50 (read off the curve)” value in [8] was approximately 0.003 µg/mL. Moreover, in assay [9], the equilibrium dissociation constant (Kd) amounted to 0.158 nM, the off-rate (koff) was 8.28e-05 s⁻¹ and the kon amounted to 525000 M⁻¹ s⁻¹. The concentration giving a half-maximal response (EC50 (read off the curve)) in assay [10] is approximately 0.003 µg/mL. In [11], this molecule had an EC50 of 0.144 µg/mL. The same molecule displayed an EC50 in [12] of 0.151 µg/mL. In addition, the binding result in assay [13] is on record as “no binding (tested: 10000 ng/ml (log 4))”.

B3: 71H8 (murine monoclonal antibody) (antibody, V domains shown)
VH: QVQLQQSGAELVKPGASVKMSCKASGYTFTSYWITWVKQRPGQGLEWIGDIYPGSGSTNQNEKFKSKATLTVDTSSSTAYMQLSSLTSEDSAVYYCAKLRPYYFVYWGQGTTLTVSS
VL: DIQMTQTPSSLSASLGDRVTISCRASQDISNYLNWYQQKPDGTVKLLIYYTSRLLSGVPSRFSGSGSGTDYSLTISNLEQEDIATYFCQQGNTLPLTFGAGTKLELK
With B3, the “EC50, agonistic activity” value in [1] amounted to 0.0494 µg/mL. The concentration giving a half-maximal response (EC50) in assay [2] stood at 0.052 µg/mL; in assay [4] it was 0.0501 µg/mL; in [5], 0.126 µg/mL; in [6], 0.113 µg/mL. For the same molecule, the binding result in assay [3] is listed as “no binding”; in [7], “no binding (tested: serial dilution from 40 µg/ml)”.

B4: chimeric antibody 68C8 (antibody, human IgG1, kappa, V domains shown)
VH: QVQLQQSGAELVKPGASVKMSCKASGDTFTSYWITWVKQRPGQGLEWIGDIHPGSGSTNNNEKFKNKATLTVDTSSSTAYMQLSSLTSEDSAVYYCAKLRPYYFVYWGQGTTLTVSS
VL: DIQMTQTTSSLSASLGDRVTISCRASQDISNYLNWYQQKPDGTVKLLIYYTSRLLSGVPSRFSGSGSGTDYSLTISNLEQEDIATYFCQQGNTLPLTFGAGTRLELKR
notes: as for B2
Turning to B4, the binding result in [14] is given as “no binding (tested: 10000 ng/ml (log 4))”. In addition, in assay [9], the Kd was 0.187 nM, the koff came out at 7.35e-05 s⁻¹ and the association rate constant (kon) is 393000 M⁻¹ s⁻¹. Moreover, in [11], the EC50 was found to be 0.134 µg/mL. In assay [12], this molecule registered a concentration giving a half-maximal response (EC50) of 0.0806 µg/mL.

B5: 6A12 (murine monoclonal antibody) (antibody, V domains shown)
VH: QVQLQQSGPELVKPGASVKISCKASGYAFSSSWMNWVKQRPGKGLEWIGRIYPGDGITNYNGNFKGKATLTADKSSSTAYMQLSGLTSADSAVYFCAREFIPLGWGTGTTVTVSS
VL: DIVMTQTPFSNPVTLGTSASISCRSSKSLLHSNGITYLYWYLQKPGQSPQLLIYQMSNLASGVPDRFSSSGSGTDFTLRISRVEAEDVGVYYCAQNLELPWTFGGGTKLEIK
For the molecule B5, the “EC50, agonistic activity” value in assay [1] was found to be 0.274 µg/mL. Besides, the EC50 in assay [2] came to 0.0415 µg/mL; in assay [4] it was 0.05 µg/mL; in [5], 0.253 µg/mL; in assay [6], 0.406 µg/mL. In addition, the binding result in assay [3] was “no binding”; in [7], “no binding (tested: serial dilution from 40 µg/ml)”.

A word on the EC50: it is the concentration at which the effect is half-maximal. For orientation: EC50 (read off the curve) means the concentration at which the effect is half-maximal. One may read the Kd as the constant that tells how readily two partners part at equilibrium. A word on the koff: it is a measure of how fast the partners let go of each other. Usually kon stands for a measure of how fast the partners come together.
